Assay results taken from patent US20190359710A1 (FRIEDRICH ALEXANDER UNIVERSIT T ERLANGEN N RNBERG, published 2019).
Numbering of substitutions follows the chain as printed.

Assays:
[1] = molecular target: T1, human CD123 (alpha chain of the interleukin-3 receptor) (human, UniProt P26951 19-378); experiment: affinity for CD123, method not named in the table (antigen on mammalian cells by the text)
T1 construct: also called 239 CD123+; HEK293.123

human CD16 [2] = molecular target: T2, human CD16 (human, UniProt P08637 17-254); experiment: calibrated flow cytometry on CHO16-10 cells (CD16 single-positive)
T2 construct: whole, on cells; also called hu CD16; CHO16-10 CD16+
T2 sequence (P08637 17-254): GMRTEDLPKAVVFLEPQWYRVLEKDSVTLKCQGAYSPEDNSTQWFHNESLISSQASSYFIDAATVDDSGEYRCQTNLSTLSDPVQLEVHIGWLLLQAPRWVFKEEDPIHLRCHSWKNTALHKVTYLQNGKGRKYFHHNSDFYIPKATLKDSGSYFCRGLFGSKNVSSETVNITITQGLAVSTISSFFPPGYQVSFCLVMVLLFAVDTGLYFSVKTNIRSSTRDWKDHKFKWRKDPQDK
Protocol: (§1) The remaining triplebodies (a), (b), (d) and (f) from the above list were further analyzed. Equilibrium binding constants (KD) of each of the component scFvs carried in these triplebodies were determined by calibrated flow cytometry (Table 5). Thermo-stability in human serum was evaluated by incubation in human serum at 37° C. in vitro, and the binding ability to CD33, CD16 and CD123 on antigen single-positive mammalian cells was measured by FACS-analysis. Residual binding capacity (in % of the starting value) was evaluated after incubation for various lengths of time (Table 5).
(§2) In the top 2 rows the variant humanized according to AHo was used, in the bottom 2 rows the variant humanized according to RK was used. U937 cells are single-positive for CD33; CHO16-10 cells are single-positive (stably transfected) variants for hu CD16; […] are a stably transfected variant of HEK293, single-positive for CD123; MOLM13 cells are a stable, human AML-derived cell line double-positive for CD123 and CD33. n = number of independent experiments performed. Numbers in the table are arithmetic means from n separate measurements ± the Standard Error of the Mean (SEM).

human CD33 [3] = molecular target: T3, human CD33 (human, UniProt P20138 18-364); experiment: affinity for CD33, method not named in the table (antigen on mammalian cells by the text)
T3 construct: whole, on cells; also called U937 CD33+
T3 sequence (P20138 18-364): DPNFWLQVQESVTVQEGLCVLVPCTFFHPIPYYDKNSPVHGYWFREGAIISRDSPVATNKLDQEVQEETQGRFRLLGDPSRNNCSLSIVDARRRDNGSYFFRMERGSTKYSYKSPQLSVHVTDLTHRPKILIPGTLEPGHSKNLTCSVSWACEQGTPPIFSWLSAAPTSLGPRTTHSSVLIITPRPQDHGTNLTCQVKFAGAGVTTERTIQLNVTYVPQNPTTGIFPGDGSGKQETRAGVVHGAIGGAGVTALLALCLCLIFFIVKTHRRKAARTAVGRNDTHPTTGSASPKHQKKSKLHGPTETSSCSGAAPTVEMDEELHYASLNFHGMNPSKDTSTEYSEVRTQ

[4] = molecular target: T1, human CD123 (alpha chain of the …); experiment: calibrated flow cytometry on CD123-transfected HEK293 cells
Protocol: as §1, §2

human CD16 [5] = molecular target: T2, human CD16; experiment: affinity for CD16, method not named in the table (antigen on mammalian cells by the text)
human CD33 [6] = molecular target: T3, human CD33; experiment: calibrated flow cytometry on U937 cells (CD33 single-positive)
Protocol: as §1, §2

human CD16 [7] = molecular target: T2, human CD16; experiment: cytofluorimetry on CHO cells stably transfected with CD16

T1 sequence (P26951 19-378 limits assumed): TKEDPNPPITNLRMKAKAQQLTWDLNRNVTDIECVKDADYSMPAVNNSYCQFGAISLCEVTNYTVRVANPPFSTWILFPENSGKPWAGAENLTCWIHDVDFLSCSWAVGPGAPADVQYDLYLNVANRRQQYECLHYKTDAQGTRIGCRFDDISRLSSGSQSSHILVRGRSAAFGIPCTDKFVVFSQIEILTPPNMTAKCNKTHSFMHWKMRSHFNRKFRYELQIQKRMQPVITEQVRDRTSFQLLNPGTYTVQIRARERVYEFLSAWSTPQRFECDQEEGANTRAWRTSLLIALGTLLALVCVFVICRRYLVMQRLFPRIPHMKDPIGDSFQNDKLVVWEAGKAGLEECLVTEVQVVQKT

B1: triplebody hu[33-ds16-123] (other)
chain: EVQLVESGGGLIQPGGSLRLSCAASGFPLTSYGVSWVRQPPGKGLEWLGVIWGDGSTNYHSALISRFTISRDNSKNTLYLQMNSLRAEDTAVYYCARDTYYPYYAMDYWGQGTTVTVSSGGGGSGGGGSGGGGSDIQMTQSPSSLSASVGDRVTITCKASQDVSTAVAWYQQKPGKAPKLLIYSASYRYTGVPSRFSGSGSGTDFTLTISSLQPEDFATYYCQQHYSTPLTFGQGTKLEIKRGGGGSGGGGSGGGGSGGGGSDIVLTQSPSSLSASVGDRVTITCKASQSVDFDGDSFMNWYQQKPGKAPKLLIYTTSNLESGVPSRFSASGSGTDFTLTISSLQPEDFATYYCQQSNEDPYTFGCGTKVEIKRGGGGSGGGGSGGGGSGGGGSEVQLVESGGGDVQPGGSLRLSCAFSGFSLRTSGMGVGWIRQAPGKCLEWVAHIWWDDDKRYNPSVKGRFTISKDTSSNTVYLQMNSLRAEDTAVYYCAQINPAWFAYWGQGTLVTVSSGGGGSGGGGSGGGGSGGGGSEVQLVESGGGLVQPGGSLRLSCAASGFTFTDYYMSWVRQAPGKGLEWLALIRSKADGYTTEYSASVKGRFTISRDDSKNSLYLQMNSLKTEDTAVYYCARDAAYYSYYSPEGAMDYWGQGTSVTVSSGGGGSGGGGSGGGGSDIQMTQSPSSLSASVGDRVTITCKASQNVDSAVAWYQQKPGKAPKALIYSASYRYSGVPSRFSGSGSGTDFTLTISSLQPEDFATYYCQQYYSTPWTFGQGTKVEIKR
For B1, the Kd [1] was 13 nM, the Kd (human CD16 [2]) was 11 nM and the Kd (human CD33 [3]) was 53 nM. The Kd [4] was 11 nM, the Kd (human CD16 [5]) was 13 nM and the Kd (human CD33 [6]) was 49 nM.

B2: humanized CD16-specific scFv variant 1/3 (Vk1 / VH3 frameworks, LH order, (Gly4Ser)4x linker) (scFv)
chain: DIVLTQSPSSLSASVGDRVTITCKASQSVDFDGDSFMNWYQQKPGKAPKLLIYTTSNLESGVPSRFSASGSGTDFTLTISSLQPEDFATYYCQQSNEDPYTFGQGTKVEIKRGGGGSGGGGSGGGGSGGGGSEVQLVESGGGDVQPGGSLRLSCAFSGFSLRTSGMGVGWIRQAPGKGLEWVAHIWWDDDKRYNPSVKGRFTISKDTSSNTVYLQMNSLRAEDTAVYYCAQINPAWFAYWGQGTLVTVSS
In the case of B2, the Kd (human CD16 [7]) is reported as 12.7 nM.

B3: candidate triplebody hu[33-ds16-ds123RK] before polishing of the sequence (other, not shown: small tags and cut ends)
chain: B1 chain with G576C, Q774C
notes: the list of removed pieces may not be complete; also called variant (f)
Binder B3 has a Kd (human CD16 [2]) of 18 nM, a Kd [4] of 9 nM and a Kd (human CD33 [6]) of 31 nM.

B4: single chain triplebody SPM-2, hu(33-ds16-ds123RK) (other)
chain: EVQLVESGGGLIQPGGSLRLSCAASGFPLTSYGVSWVRQPPGKGLEWLGVIWGDGSTNYHSALISRFTISRDNSKNTLYLQMNSLRAEDTAVYYCARDTYYPYYAMDYWGQGTTVTVSSGGGGSGGGGSGGGGSDIQMTQSPSSLSASVGDRVTITCKASQDVSTAVAWYQQKPGKAPKLLIYSASYRYTGVPSRFSGSGSGTDFTLTISSLQPEDFATYYCQQHYSTPLTFGQGTKLEIKRGGGGSGGGGSGGGGSGGGGSDIVLTQSPSSLSASVGDRVTITCKASQSVDFDGDSFMNWYQQKPGKAPKLLIYTTSNLESGVPSRFSASGSGTDFTLTISSLQPEDFATYYCQQSNEDPYTFGCGTKVEIKRGGGGSGGGGSGGGGSGGGGSEVQLVESGGGDVQPGGSLRLSCAFSGFSLRTSGMGVGWIRQAPGKCLEWVAHIWWDDDKRYNPSVKGRFTISKDTSSNTVYLQMNSLRAEDTAVYYCAQINPAWFAYWGQGTLVTVSSGGGGSGGGGSGGGGSGGGGSEVQLVESGGGLVQPGGSLRLSCAASGFTFTDYYMSWVRQAPGKCLEWLALIRSKADGYTTEYSASVKGRFTISRDDSKNSLYLQMNSLKTEDTAVYYCARDAAYYSYYSPEGAMDYWGQGTSVTVSSGGGGSGGGGSGGGGSDIQMTQSPSSLSASVGDRVTITCKASQNVDSAVAWYQQKPGKAPKALIYSASYRYSGVPSRFSGSGSGTDFTLTISSLQPEDFATYYCQQYYSTPWTFGCGTKVEIKRGGGGSHHHHHH
notes: Trispecific single-chain triplebody made of three scFvs in tandem, produced in HEK293 F cells; also called 33-ds16-ds123 (SPM-2)
In the case of B4, the Kd [1] is reported as 32 nM, the Kd (human CD33 [3]) is reported as 23 nM and the Kd (human CD16 [5]) is reported as 35 nM.
